From US20230391845A1, “GLP-1, GIP AND GLUCAGON RECEPTOR TRIPLE AGONISTS” (priority 2020, published 2023)
Where no end group is shown, it is not given here. [ ]: non-standard residue; d: D form. Aib = CC(C)(N)C(=O)O

T1: human glucose-dependent insulinotropic polypeptide receptor (human, UniProt P48546 22-466)
T1 sequence (looked up): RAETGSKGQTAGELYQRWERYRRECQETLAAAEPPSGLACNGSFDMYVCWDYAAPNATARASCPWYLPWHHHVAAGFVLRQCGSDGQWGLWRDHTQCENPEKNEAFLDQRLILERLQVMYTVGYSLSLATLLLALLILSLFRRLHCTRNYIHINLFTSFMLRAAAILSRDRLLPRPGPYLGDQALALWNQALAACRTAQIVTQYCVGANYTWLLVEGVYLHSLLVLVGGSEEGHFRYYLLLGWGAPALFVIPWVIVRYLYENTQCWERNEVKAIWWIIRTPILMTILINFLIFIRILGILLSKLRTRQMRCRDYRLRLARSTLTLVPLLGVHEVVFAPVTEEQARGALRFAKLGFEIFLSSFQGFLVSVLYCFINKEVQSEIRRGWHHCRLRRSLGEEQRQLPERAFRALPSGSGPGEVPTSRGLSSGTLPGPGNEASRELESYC


Assays:
Experiment in all cases: cell-based or functional assay
[1] = target: human glucagon-like peptide 1 receptor (human, UniProt P43220 24-463)
[2] = target: T1, human glucose-dependent insulinotropic …
human glucagon receptor = human glucagon receptor (human, UniProt P47871 26-477)
Sequence of human glucagon receptor (P47871 26-477): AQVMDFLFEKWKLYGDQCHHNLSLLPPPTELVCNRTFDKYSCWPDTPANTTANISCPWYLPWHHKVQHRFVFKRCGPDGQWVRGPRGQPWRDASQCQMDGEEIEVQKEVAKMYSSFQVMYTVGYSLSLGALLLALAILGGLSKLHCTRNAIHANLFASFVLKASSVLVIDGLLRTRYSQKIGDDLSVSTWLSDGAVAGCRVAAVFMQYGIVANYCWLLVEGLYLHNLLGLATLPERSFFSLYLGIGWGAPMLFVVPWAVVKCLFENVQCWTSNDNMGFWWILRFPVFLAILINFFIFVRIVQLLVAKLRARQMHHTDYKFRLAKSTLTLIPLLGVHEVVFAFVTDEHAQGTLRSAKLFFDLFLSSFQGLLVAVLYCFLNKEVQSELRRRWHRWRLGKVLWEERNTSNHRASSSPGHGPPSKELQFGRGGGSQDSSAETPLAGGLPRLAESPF

Binder	hGLP-1R CRE Luc EC50 (pM) [1]	hGIPR CRE Luc EC50 (pM) [2]	hGcgR CRE Luc EC50 (pM) (human glucagon receptor)
H[Aib]HGTFTSDYSIYLEKKYA[Aib]EFVQWLLEGGPSSGAPPPS-NH2 (not fully specified (residue 16); printed as H-Aib-HGTFTSDYSIYLE-K[2-[2-[2-[[2-[2-[2-[[(4S)-4-carboxy-4-(19-carboxynonadecanoylamino)butanoyl]amino]ethoxy]ethoxy]acetyl]amino]ethoxy]ethoxy]acetyl]-KYA-Aib-EFVQWLLEGGPSSGAPPPS-NH2) [Compound No. 39]	4.4 pM	17.9 pM	12.9 pM
H[Aib]HGTFTSDYSYLLEKQAA[Aib]EFVQWLLEGGPSSGAPPPS-NH2 (not fully specified (residue 16); printed as H-Aib-HGTFTSDYSYLLE-K[(2S)-2-amino-6-[[(2S)-2-amino-6-[[(4S)-4-carboxy-4-(19-carboxynonadecanoylamino)butanoyl]amino]hexanoyl]amino]hexanoyl]-QAA-Aib-EFVQWLLEGGPSSGAPPPS-NH2) [Compound No. 42]	1.9 pM	3.8 pM	8 pM
H[Aib]HGTFTSDYSILLEKQAA[Aib]EFVQWLLEGGPSSGAPPPS-NH2 (not fully specified (residue 16); printed as H-Aib-HGTFTSDYSILLE-K[2-[2-[2-[[2-[2-[2-[[(4S)-4-carboxy-4-(19-carboxynonadecanoylamino)butanoyl]amino]ethoxy]ethoxy]acetyl]amino]ethoxy]ethoxy]acetyl]-QAA-Aib-EFVQWLLEGGPSSGAPPPS-NH2) [Compound No. 45]	2.4 pM	1.9 pM	6.8 pM
H[Aib]HGTFTSDYSIYLEKQAA[Aib]EFVQWLLEGGPSSGAPPPS-NH2 (not fully specified (residue 16); printed as H-Aib-HGTFTSDYSIYLE-K[2-[2-[2-[[2-[2-[2-[[(4S)-4-carboxy-4-(19-carboxynonadecanoylamino)butanoyl]amino]ethoxy]ethoxy]acetyl]amino]ethoxy]ethoxy]acetyl]-QAA-Aib-EFVQWLLEGGPSSGAPPPS-NH2) [Compound No. 44]	1.8 pM	6.1 pM	45.2 pM
Y[Aib]QGTFTSDYSILLEKQAA[Aib]EFVQWLLEGGPSSGAPPPS-NH2 (not fully specified (residue 16); printed as Y-Aib-QGTFTSDYSILLE-K[(2S)-2-amino-6-[[(2S)-2-amino-6-[[(4S)-4-carboxy-4-(19-carboxynonadecanoylamino)butanoyl]amino]hexanoyl]amino]hexanoyl]-QAA-Aib-EFVQWLLEGGPSSGAPPPS-NH2) [Compound No. 46]	8.3 pM	3 pM	25 pM
H[Aib]HGTFTSDYSYYLEKQAA[Aib]EFVQWLLEGGPSSGAPPPS-NH2 (not fully specified (residue 16); printed as H-Aib-HGTFTSDYSYYLE-K[(2S)-2-amino-6-[[(2S)-2-amino-6-[[(4S)-4-carboxy-4-(17-carboxyheptadecanoylamino)butanoyl]amino]hexanoyl]amino]hexanoyl]-QAA-Aib-EFVQWLLEGGPSSGAPPPS-NH2) [Compound No. 32]	1.6 pM	3.5 pM	10.3 pM
H[Aib]HGTFTSDYSIYLEKQKA[Aib]EFVQWLLEGGPSSGAPPPS-NH2 (not fully specified (residue 16); printed as H-Aib-HGTFTSDYSIYLE-K[(2S)-2-amino-6-[[(2S)-2-amino-6-[[(4S)-4-carboxy-4-(19-carboxynonadecanoylamino)butanoyl]amino]hexanoyl]amino]hexanoyl]-QKA-Aib-EFVQWLLEGGPSSGAPPPS-NH2) [Compound No. 35]	5.2 pM	13.9 pM	5 pM
H[Aib]HGTFTSDYSKYLEKQAA[Aib]EFVQWLLEGGPSSGAPPPS-NH2 (not fully specified (residue 16); printed as H-Aib-HGTFTSDYSKYLE-K[(2S)-2-amino-6-[[(2S)-2-amino-6-[[(4S)-4-carboxy-4-(19-carboxynonadecanoylamino)butanoyl]amino]hexanoyl]amino]hexanoyl]-QAA-Aib-EFVQWLLEGGPSSGAPPPS-NH2) [Compound No. 36]	1.8 pM	9.3 pM	11.4 pM
H[Aib]HGTFTSDYSIYLEKKYA[Aib]EFVQWLLEGGPSSGAPPPS-NH2 (not fully specified (residue 16); printed as H-Aib-HGTFTSDYSIYLE-K[(2S)-2-amino-6-[[(2S)-2-amino-6-[[(4S)-4-carboxy-4-(17-carboxyheptadecanoylamino)butanoyl]amino]hexanoyl]amino]hexanoyl]-KYA-Aib-EFVQWLLEGGPSSGAPPPS-NH2) [Compound No. 38]	2.8 pM	13.1 pM	6.4 pM
H[Aib]HGTFTSDYSILLEKQAA[Aib]EFVQWLLEGGPSSGAPPPS-NH2 (not fully specified (residue 16); printed as H-Aib-HGTFTSDYSILLE-K[(2S)-2-amino-6-[[(2S)-2-amino-6-[[(4S)-4-carboxy-4-(19-carboxynonadecanoylamino)butanoyl]amino]hexanoyl]amino]hexanoyl]-QAA-Aib-EFVQWLLEGGPSSGAPPPS-NH2) [Compound No. 43]	3 pM	2.8 pM	10.8 pM
H[Aib]HGTFTSDYSYYLEKQAA[Aib]EFVQWLLEGGPSSGAPPPS-NH2 (not fully specified (residue 16); printed as H-Aib-HGTFTSDYSYYLE-K[2-[2-[2-[[2-[2-[2-[[(4S)-4-carboxy-4-(19-carboxynonadecanoylamino)butanoyl]amino]ethoxy]ethoxy]acetyl]amino]ethoxy]ethoxy]acetyl]-QAA-Aib-EFVQWLLEGGPSSGAPPPS-NH2) [Compound No. 40]	3.7 pM	5.7 pM	36.4 pM
H[Aib]HGTFTSDYSIYLEKRAA[Aib]EFVQWLLEGGPSSGAPPPS-NH2 (not fully specified (residue 16); printed as H-Aib-HGTFTSDYSIYLE-K[(2S)-2-amino-6-[[(2S)-2-amino-6-[[(4S)-4-carboxy-4-(19-carboxynonadecanoylamino)butanoyl]amino]hexanoyl]amino]hexanoyl]-RAA-Aib-EFVQWLLEGGPSSGAPPPS-NH2) [Compound No. 37]	1.8 pM	10.8 pM	11.8 pM
H[Aib]HGTFTSDYSILLEKKYA[Aib]EFVQWLLEGGPSSGAPPPS-NH2 (not fully specified (residue 16); printed as H-Aib-HGTFTSDYSILLE-K[(2S)-2-amino-6-[[(2S)-2-amino-6-[[(4S)-4-carboxy-4-(19-carboxynonadecanoylamino)butanoyl]amino]hexanoyl]amino]hexanoyl]-KYA-Aib-EFVQWLLEGGPSSGAPPPS-NH2) [Compound No. 41]	4.3 pM	9.3 pM	7.6 pM
H[Aib]HGTFTSDYSIYLEKKAA[Aib]EFVQWLLEGGPSSGAPPPS-NH2 (not fully specified (residue 16); printed as H-Aib-HGTFTSDYSIYLE-K[2-[2-[2-[[2-[2-[2-[[(4S)-4-carboxy-4-(19-carboxynonadecanoylamino)butanoyl]amino]ethoxy]ethoxy]acetyl]amino]ethoxy]ethoxy]acetyl]-KAA-Aib-EFVQWLLEGGPSSGAPPPS-NH2) [Compound No. 34]	2.6 pM	8.7 pM	24.7 pM
